Data as given in paper PMC10313165.

Tests used:
[1] = biological target: rat CaMKIIα holoenzyme (wild type, not phosphorylated) (rat (Rattus norvegicus)) (UniProt P11275); assay: high-speed atomic force microscopy; 50 nM CaMKII and 800 nM CaM premixed in buffer B (50 mM tris-HCl pH 7.4, 150 mM KCl, 10 mM MgCl2) with 1 mM CaCl2, 30 °C, 5 min, no ATP; imaged in buffer A with 1 mM CaCl2 on pillar[5]arene-modified mica, 24-26 °C
[2] = biological target: rat CaMKIIα holoenzyme with pT286 (rat (Rattus norvegicus)) (UniProt P11275); assay: high-speed atomic force microscopy; 50 nM CaMKII and 800 nM CaM premixed in buffer B with 1 mM CaCl2 and 1 mM ATP, 30 °C, 5 min; imaged in buffer A with 1 mM CaCl2 and 1 mM ATP on pillar[5]arene-modified mica, 24-26 °C

fraction of Ca^2+/CaM bound longer than 60 s [1]: 41.1%
fraction of Ca^2+/CaM bound longer than 60 s [2]: 77.3%
Substance: rat calmodulin, 6xHis-tagged (Ca^2+-bound in the assays) (from UniProt P0DP29 1-149) (natural protein; other documents disagree on this pair)
